Read-outs that look alike come from different tables or passages of the source.
Experiments:
[1] = molecular target: T1, SARS-CoV-2 prototype (PT) spike receptor binding domain (RBD) (SARS-CoV-2, UniProt P0DTC2 319-541); experiment: SPR
[2] = molecular target: T1, SARS-CoV-2 prototype (PT) spike …; experiment: SPR; remark: listed apart in the source

B1: raccoon dog ACE2 (rdACE2), peptidase domain (PD), wild type (receptor)
chain: QSTEDLVNTFLEKFNYEAEELSYQSSLASWNYNTNITDENLQKMNNAGAKWSAFYEEQSKLAKTYPLEEIQDSTVKRQLRALQHSGSSVLSADKNQRLNTILNSMSTIYSTGKACNPSNPQECLLLEPGLDDIMENSKDYNERLWAWEGWRSEVGKQLRPLYEEYVALKNEMARANNYEDYGDYWRGDYEEEWENGYNYSRNQLIDDVEHTFTQIMPLYQHLHAYVRTKLMDTYPSYISPTGCLPAHLLGDMWGRFWTNLYPLTVPFGQKPNIDVTNAMVNQSWDARKIFKEAEKFFVSVGLPNMTQGFWENSMLTEPSDSWKVVCHPTAWDLGRGDFRIKMCTKVTMDDFLTAHHEMGHIQYDMAYAAQPFLLRNGANEGFHEAVGEIMSLSAATPNHLKNIGLLPPSFFEDSETEINFLLKQALTIVGTLPFTYMLEKWRWMVFKGEIPKDQWMKTWWEMKRNIVGVVEPVPHDETYCDPASLFHVANDYSFIRYYTRTIYQFQFQEALCQIAKHEGPLHKCDISNSSEAGQKLLEMLKLGKSKPWTYALEIVVGAKNMDVRPLLNYFEPLFTWLKEQNRNSFVGWNTDWSPYADQS
- Kd [1]: 70.7 nM
- Kd [2]: 87.4 nM

— paper PMC11620640 (2024)
